Common to all, as to test: cryo-EM structure
For assay [1], the target named is LHC-II complex (spinach (endogenous in leaves)).
The target in assay [2] is tonoplast intrinsic protein TIP1;1 (spinach (endogenous in leaves)).
Assay [3] deals with tonoplast intrinsic protein TIP2;1 (spinach (endogenous in leaves)).
The target of assay [4] is Rubisco (spinach (endogenous in leaves)).
In assay [5] the target is chloroplast carbonic anhydrase (CA) (spinach (endogenous in leaves)).

Usually stoichiometry N stands for the number of molecules, sites or subunits per partner or assembly. In assay [1], LHC-II complex (natural protein) had a stoichiometry N of 3.

For the substance “tonoplast intrinsic protein TIP1;1 (natural protein)”, the stoichiometry N in assay [2] was found to be 4; in assay [3], 3.

In assay [4], Rubisco (complex) registered a stoichiometry N of 8.

As to “chloroplast carbonic anhydrase (CA) (enzyme)”, in assay [5], the stoichiometry N was 8.

The values above are taken from publication doi:10.1101/2023.10.13.562012.
